Measured values taken from the supplement of paper PMC9732359.
± gives the uncertainty stated by the source.

Experiment: protein stability index of a GFP-peptide fusion (yeast GPS) (PSI 1-4); higher = more stable; sorted into four equal gates, so the index is relative within each strain
Details: ubr1∆
Method in brief: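 The protein stability index of a peptide was calculated by multiplying its read frequency in each gate by that gate's number and adding the products. The peptides were tiled 17-residue stretches of yeast proteins, fused downstream of GFP on a Cherry-expressing plasmid and carried in yeast as a pooled library. Mid-log cultures in leucine-free medium were sorted into four equal gates by GFP/Cherry ratio, and each gate's plasmids were PCR-amplified and Illumina-sequenced.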

Going from EQEQQQQQIIKIRITLT [RPS20] to EQISNNSNQQQNPKLFQ [SIN4], the protein stability index falls from 3.09 ± 0.061 to 2.95 ± 0.052.

Going from EQKLQTVLETLLSDVNQ [SMC3] to EQKNTAKEELNGLKDQL [YIL149C/MLP2], the protein stability index rises from 1.22 ± 0.13 to 3.31 ± 0.07.

Going from EQNSSSAKPSQIPTVSS [SIR4] to EQQWITRAQYLAFAKLV [SRP68], the protein stability index falls from 3.04 ± 0.05 to 1.5 ± 0.051.

First: EQSELLKAQITSLKCLV [SNF2]
Second: EQSLEVFIFPTSNWEIY [SRB8]
The protein stability index of the first is lower: 1.99 ± 0.042 for the first, 2.52 ± 0.033 for the second.

Compared with EREPVPLGILHIPICVT [RRP45], ERESSGAKDAEKSGISK [RPC17] is higher in protein stability index: 1.95 ± 0.059 for the first, 3.64 ± 0.16 for the second.

Compared with EREVFVDVKPKSPKERE [RPC25], ERFQVMVLRKQKRYTVK [RPL14A] is lower in protein stability index: 3.34 ± 0.13 for the first, 2.71 ± 0.11 for the second.

ERGHPKDNARIYQVPEK [POP1] and ERHQAGKNQWFFSKLRF [RPL27A] are within error of each other in protein stability index: 3.11 ± 0.05 for the first, 3.18 ± 0.046 for the second.

First: ERKEQEEKEKEQSKEVG [BRN1]
Second: ERKQIHEFKLIVGKKIQ [GRR1]
The protein stability index of the first is higher: 3.45 ± 0.14 for the first, 3.13 ± 0.058 for the second.

First: ERKTLERQQENLLIQRL [SWI3]
Second: ERNASEVRDATLNNIFR [GRR1]
The protein stability index of the first is lower: 3.09 ± 0.067 for the first, 3.53 ± 0.16 for the second.

Compared with ERPAIEFETPTFLVSND [RPN14], ERTKQRTAKAYLKVSEE [PRP8] is higher in protein stability index: 2.9 ± 0.089 for the first, 3.34 ± 0.057 for the second.

ERVMKNKVEENLEGLYL [RPT2] and ESAVKYALAAKDRFDID [RPN2] are within error of each other in protein stability index: 3.35 ± 0.12 for the first, 3.45 ± 0.1 for the second.

ESDSKATLQSNEPTQKD [DSN1] and ESKLIPQENDLESKMSE [SMC3] are within error of each other in protein stability index: 3.02 ± 0.086 for the first, 3.01 ± 0.054 for the second.

First: ESKPFSSDALSKEKANF [SIR4]
Second: ESKSDDNSATSYYELET [RRI1]
The protein stability index of the first is lower: 1.39 ± 0.056 for the first, 3.19 ± 0.057 for the second.

Going from ESLYEPNLEPEDLFETI [PUP3] to ESPVDVQSQVDSSSVSE [FAS1], the protein stability index rises from 3.01 ± 0.078 to 3.23 ± 0.042.

Compared with ESSINTHPHAADGSSYM [SKI6], ESSSEDDYEDQDDDDYV [IRR1] is higher in protein stability index: 3.05 ± 0.036 for the first, 3.65 ± 0.16 for the second.

First: ESVPIYSIDEFFLQRKL [BRR2]
Second: ESYNQNDWKLETERLIS [SIN4]
The protein stability index of the first is higher: 3.33 ± 0.057 for the first, 3.15 ± 0.11 for the second.

ETANVASLNLLQLAPGA [RPL4A] and ETATSERNASEVRDATL [GRR1] are within error of each other in protein stability index: 3.27 ± 0.11 for the first, 3.52 ± 0.19 for the second.

Compared with ETESSVSNNEANTPSIP [SWI3], ETIIEADKSLPSSMATL [YJR042W/NUP85] is lower in protein stability index: 3.15 ± 0.054 for the first, 2.91 ± 0.055 for the second.

First: ETIKSLEDPYKYHYKEE [CSN9]
Second: ETYGSMEMSEKIQFILE [RPN5]
The protein stability index of the first is higher: 3.14 ± 0.06 for the first, 2.77 ± 0.079 for the second.

Going from EVDKSKLITTYISLLKL [YDL116W/NUP84] to EVDVCDKCGLMGYSGWC [RET1], the protein stability index rises from 1.43 ± 0.046 to 2.39 ± 0.088.

EVFEFKTFNKIQSQVFE [BRR2] and EVFIGRVKDQDGRVNRF [YJR042W/NUP85] are within error of each other in protein stability index: 3.08 ± 0.22 for the first, 3.19 ± 0.17 for the second.

Going from EVGNRKHYLEDKLKVYK [SNF5] to EVGPWGSARTRWEMEAF [FAS2], the protein stability index falls from 3.06 ± 0.067 to 1.6 ± 0.13.

Going from EVIFTDVLKSQANTEPE [MCD1] to EVKLKASLKKMEETEQK [SMC3], the protein stability index rises from 2.95 ± 0.12 to 3.53 ± 0.25.

Going from EVLEKDAAIVKKYKNKT [YGR119C/NUP57] to EVLQGLLQGGAKVVVTT [FAS2], the protein stability index falls from 3.1 ± 0.096 to 1.61 ± 0.088.

Compared with EVNSLLLQVNKTFCEDP [GRR1], EVSDFDEMYELTDPMTV [DIB1] is lower in protein stability index: 3.24 ± 0.044 for the first, 2.85 ± 0.26 for the second.

Going from EVSGENVVEADLKRFVD [QCR2] to EYAALASLADVMSIESL [FAS1], the protein stability index falls from 3.66 ± 0.067 to 3.07 ± 0.053.

EYGKHDFKNEESLSEEH [MED8] and EYIDAEEEESILIAMQP [RPB2] are within error of each other in protein stability index: 3.34 ± 0.054 for the first, 3.46 ± 0.091 for the second.

EYKLATYGVPGSENKRG [NUT1] and EYNRLKVQDAIEEEIFD [LIN1] are within error of each other in protein stability index: 2.96 ± 0.065 for the first, 2.93 ± 0.055 for the second.

Compared with EYYAKKRAFTKKVASAN [RPL16A], FAAKQRQELQMQRQQQG [SNF2] is higher in protein stability index: 1.57 ± 0.059 for the first, 2.7 ± 0.045 for the second.

First: FADKKRDCIDISIFSTP [PRP8]
Second: FALIDYFYDLDVLKDGE [BRN1]
The protein stability index of the first is higher: 3.24 ± 0.068 for the first, 2.79 ± 0.049 for the second.

Compared with FDALRSLDDNSTSLEKQ [YJL041W/NSP1], FDEGTTLLSPKDNGMLI [RPO21] is lower in protein stability index: 3.02 ± 0.066 for the first, 1.96 ± 0.065 for the second.

Going from FDEKTIEEMLEIISGYA [RPC17] to FDFIKDNETPSKKTSPK [YOR098C/NUP1], the protein stability index rises from 1.75 ± 0.09 to 2.96 ± 0.038.

Compared with FDFLDDGTAQLSNNKTD [YJR042W/NUP85], FDKNTKTTPNTASSEAS [YMR153W/NUP53] is lower in protein stability index: 3.39 ± 0.12 for the first, 2.8 ± 0.043 for the second.

Compared with FDPSRIKDLKQREDKLK [SMC2], FDVVLTTFEYIIKERAL [SNF2] is lower in protein stability index: 2.92 ± 0.13 for the first, 2.14 ± 0.071 for the second.

First: FEAAVKMSDGFNGADIR [RPT4]
Second: FEDATREQHIDTICQSI [SNF5]
The protein stability index of the first is higher: 3.39 ± 0.09 for the first, 3.19 ± 0.08 for the second.

Going from FEEWIKMATDNKINSRN [BRN1] to FEFGNMKATSNTLEEFE [FAS2], the protein stability index falls from 3.7 ± 0.14 to 3.23 ± 0.058.

Sequence FEFNIRHSGKVYPITLS [UBP6] has a protein stability index of 1.22 ± 0.056.
